Results on one molecule are retold here after PMC8943206 (2022).

In this test the target is T1, cGAS-His (human, UniProt Q8N884 1-522).
T1 chain: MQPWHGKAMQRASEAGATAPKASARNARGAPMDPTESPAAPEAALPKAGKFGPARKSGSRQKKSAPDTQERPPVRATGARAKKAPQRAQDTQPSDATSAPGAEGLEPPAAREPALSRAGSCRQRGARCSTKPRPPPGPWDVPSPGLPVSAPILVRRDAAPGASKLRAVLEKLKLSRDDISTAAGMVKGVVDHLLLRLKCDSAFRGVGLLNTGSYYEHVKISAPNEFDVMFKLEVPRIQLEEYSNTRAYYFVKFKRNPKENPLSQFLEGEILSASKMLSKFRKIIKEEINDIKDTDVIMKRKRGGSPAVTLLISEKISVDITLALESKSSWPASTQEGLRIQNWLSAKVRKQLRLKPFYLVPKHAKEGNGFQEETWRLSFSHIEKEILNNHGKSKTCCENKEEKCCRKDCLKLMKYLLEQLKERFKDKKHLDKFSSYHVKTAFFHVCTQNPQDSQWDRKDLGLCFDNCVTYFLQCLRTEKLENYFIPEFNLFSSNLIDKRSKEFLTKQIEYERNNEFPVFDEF
The test can be described thus: SPR. Background: In SPR one partner is held on a chip, and binding of the other changes the refractive index at the surface.

B1: GST-PCBP2 (natural protein)
chain: MDTGVIEGGLNVTLTIRLLMHGKEVGSIIGKKGESVKKMREESGARINISEGNCPERIITLAGPTNAIFKAFAMIIDKLEEDISSSMTNSTAASRPPVTLRLVVPASQCGSLIGKGGCKIKEIRESTGAQVQVAGDMLPNSTERAITIAGIPQSIIECVKQICVVMLETLSQSPPKGVTIPYRPKPSSSPVIFAGGQDRYSTGSDSASFPHTTPSMCLNPDLEGPPLEAYTIQGQYAIPQPDLTKLHQLAMQQSHFPMTHGNTGFSGIESSSPEVKGYWGLDASAQTTSHELTIPNDLIGCIIGRQGAKINEIRQMSGAQIKIANPVEGSTDRQVTITGSAASISLAQYLINVRLSSETGGMGSS
What is called Kd is the free concentration of one partner at which half of the binding sites on the other are occupied at equilibrium, for simple one-to-one binding. Low readings indicate tighter binding, high ones weaker binding. B1 registered a Kd of 470 nM.
